Measured values: patent US20080166345A1, “MEDICAMENTS COMPRISING GENE RECOMBINANT ANTIBODY AGAINST GANGLIOSIDE GD3” (KYOWA HAKKO KOGYO CO., LTD., priority 2001, published 2008)

Experiments:
B16-29-10 = assay: Fluorescent antibody technique (flow cytometer), GD3 synthase transfectant; assay type: binding, mouse; details: antibody 5 μg/ml; FIG. 3
Protocol: (§1) Each of 1×10^6 cells of the GD3 synthase gene transfectants B16-8-3 and B16-29-10 obtained in b. of the item (2) of Example 1 and the parent cell line B16-F10 cell were suspended in PBS, put into a microtube (manufactured by Treff) and centrifuged (2,000 rpm for 2 minutes) for washing the cells, 50 μl of the anti-GD3 human chimeric antibody KM871 (a solution prepared by adjusting to 5 μg/ml with 1% BSA-PBS, negative control was 1% BSA-PBS alone) was added thereto, followed by stirring, and the reaction was carried out at 4° C. for 1 hour. After the reaction and subsequent washing with PBS by centrifugation three times, 100 μl of biotin-labeled goat anti-human IgG (H+L) solution (manufactured by VECTOR, used by diluting 400 folds with 1% BSA-PBS) was added thereto, followed by stirring, and the reaction was carried out at 4° C. for 1 hour. After washing with PBS by centrifugation three times, 100 μl of a streptoavidin-labeled Cy5 pigment solution (Streptoavidin-RED670 manufactured by GIBCO, used by diluting 100 folds with 1% BSA-PBS) was added thereto, followed by stirring, and the reaction was carried out at 4° C. for 30 minutes. After the reaction and subsequent washing with PBS by centrifugation three times, the cells were again suspended in PBS to carry out the analysis using a flow cytometer EPICS Elite (manufactured by COULTER).

B16-8-3 = assay: as above; assay type: binding, mouse; details: antibody 5 μg/ml; FIG. 3
Protocol: as §1

[1] = Reactivity of purified antibodies with GD3 (ELISA); assay type: binding; details: antibody 10 μg/ml, 20 pmol/well; FIG. 22
Protocol: (§2) Each ganglioside (2 nmol) was dissolved in […] of ethanol solution containing 10 μg of dipalmitoylphosphatidylcholine (manufactured by SIGMA) and 5 μg of cholesterol (manufactured by SIGMA). In each well of a 96 well plate for ELISA (manufactured by Greiner), 20 μl of the solution (becomes 20 pmol/well) or 20 μl of the solution diluted with ethanol was respectively dispensed, followed by air-drying, and then PBS containing 1% BSA (hereinafter referred to as “1% BSA-PBS”) was added in 100 μl/well and allowed to react at room temperature for 1 hour to thereby block remaining active groups. After discarding 1% BSA-PBS, culture supernatants of transformants or diluted solutions of humanized antibodies were added in 50 μl/well and allowed to react at room temperature for 1 hour. […] After the reaction and subsequent washing with Tween-PBS, an ABTS substrate solution (a solution prepared by dissolving 0.55 g of 2,2′-azinobis(3-ethylbenzothiazoline-6-sulfonic acid) in 1 L of 0.1 M citrate buffer (pH 4.2) and adding 1 μl/ml hydrogen peroxide just before the use) was added in 50 μl/well for color development and the absorbance at 415 nm (hereinafter referred to as “OD415”) was measured.
(§3) Reactivity of purified anti-GD3 CDR-grafted antibodies KM8869, KM8870 and KM8871 with GD3 (manufactured by DIA-IATRON) was measured by the ELISA shown in the item 2 of Reference Example. […]

[2] = Reactivity of purified antibodies with various gangliosides (ELISA); assay type: binding; details: antibody 10 μg/ml, 20 pmol/well; FIG. 22
Protocol: as §2, §3

[3] = as above; assay type: binding; details: antibody 10 μg/ml, 20 pmol/well; FIG. 22; remark: listed apart in the source
Protocol: as §2, §3

[4] = test system: human melanoma culture cell line G-361; assay: In vitro cytotoxic activity (CDC activity), 51Cr release; assay type: cell-based; details: antibody 0.05 to 50 μg/ml, human complement; FIG. 24
Protocol: (§4) Each of human melanoma culture cell lines, G-361 (ATCC CRL 1424) and SK-MEL-28 (ATCC HTB72), was cultured in RPMI1640-FBS(10) medium and adjusted to 5×10^6 cells, and the cells were isotope-labeled by adding 3.7 MBq equivalent of a radioactive substance Na2^51CrO4 and carrying out the reaction at 37° C. for 1 hour. After the reaction, the cells were washed three times by their suspension in RPMI1640-FBS(10) medium and centrifugation, re-suspended in the medium and then incubated in ice at 4° C. for 30 minutes to thereby spontaneously release the radioactive substance. […]
(§5) To each well of a 96 well U bottom plate (manufactured by Falcon), 50 μl of the target cell suspension prepared in “a.” was added (5×10^4 cells/well), and then the anti-GD3 chimeric antibody KM871 or the anti-GD3 CDR-grafted antibody, KM8869, KM8870 or KM8871, was added to give a final concentration of 0.05 to 50 μg/ml and allowed to react at room temperature for 30 minutes. […] After centrifugation, the amount of ^51Cr released in the supernatant was measured by a γ-counter. The amount of the spontaneously dissociated ^51Cr was calculated by carrying out the same procedure using the medium alone instead of the antibody solution and complement solution and measuring the amount of ^51Cr in the supernatant. […] The CDC activity was calculated by the following equation.

[5] = test system: human melanoma culture cell line SK-MEL-28; assay: as above; assay type: cell-based; details: antibody 0.05 to 50 μg/ml, human complement; FIG. 24
Protocol: as §4, §5

B1: KM871: anti-GD3 human chimeric antibody; VH SEQ ID NO:49, VL SEQ ID NO:50, human IgG1 and κ C regions (antibody, listed as Mus musculus, V domains shown)
VH: EVTLVESGGDFVKPGGSLKVSCAASGFAFSHYAMSWVRQTPAKRLEWVAYISSGGSGTYYSDSVKGRFTISRDNAKNTLYLQMRSLRSEDSAMYFCTRVKLGTYYFDSWGQGTTLTVSS
VL: DIQMTQTASSLPASLGDRVTISCSASQDISNYLNWYQQKPDGTVKLLIFYSSNLHSGVPSRFSGGGSGTDYSLTISNLEPEDIATYFCHQYSKLPWTFGGGTKLEIKR
modifications: human IgG1 and kappa constant regions
With B1 the reactivity with cells (B16-29-10) was “reacted”, the reactivity with cells (B16-8-3) was “reacted” and the binding to ganglioside [1] was “bound strongly”. The binding to ganglioside [2] was “weakly”, the binding to ganglioside [3] was “did not bind” and the CDC activity [4] was “remarkably strong cytotoxic activity”. For the same molecule, the CDC activity [5] was “show the CDC activity”.
